Experimental data from US9358302.

Biological target: GBSIII-OVAp (GBSIII conjugated to OVAp19)
Assay: cell-based or functional assay

## T-cell receptor of DO11.10 transgenic mice that recognizes OVA peptide 323-339 in the context of MHC class II (I-A^d) (TCR)
  T cell proliferation, stimulation index (SI), 10 µg GBSIII-OVAp: 53.6 SI
  fold decrease in T cell proliferation against OVAp of the same amount: 60 fold
